Results published in FireProtDB (doi:10.1016/0301-4622(94)00157-f).

Conditions: Hirudo medicinalis, Thermal, DSC, reversible: yes, whole UniProt chain shown

B1: Eglin C wild type, P01051 (protein)
chain: TEFGSELKSFPEVVGKTVDQAREYFTLHYPQYDVYFLPEGSPVTLDLRYNRVRVFYNPGTNVVNHVPHVG
pH 1.1, glycine-HCl 50mM
  Tm: 41.1 °C
  heat capacity change of unfolding: 0.86 kcal/mol/K
  unfolding enthalpy (calorimetric): 39 kcal/mol
pH 1.3, glycine-HCl 50mM
  Tm: 41.3 °C
  heat capacity change of unfolding: 0.97 kcal/mol/K
  unfolding enthalpy (calorimetric): 36.7 kcal/mol
pH 1.65, glycine-HCl 50mM
  Tm: 46.1 °C
  heat capacity change of unfolding: 0.21 kcal/mol/K
  unfolding enthalpy (calorimetric): 39.3 kcal/mol
pH 1.8, glycine-HCl 50mM
  Tm: 47.3 °C
  heat capacity change of unfolding: 0.11 kcal/mol/K
  unfolding enthalpy (calorimetric): 41.9 kcal/mol
pH 2, glycine 50mM
  Tm: 46.9 °C
  heat capacity change of unfolding: 0.58 kcal/mol/K
  unfolding enthalpy (calorimetric): 41.3 kcal/mol
pH 2.15, glycine 50mM
  Tm: 51.1 °C
  heat capacity change of unfolding: 0.51 kcal/mol/K
  unfolding enthalpy (calorimetric): 46.9 kcal/mol
pH 2.25, glycine 50mM
  Tm: 51.1 °C
  heat capacity change of unfolding: 0.51 kcal/mol/K
  unfolding enthalpy (calorimetric): 46.7 kcal/mol
pH 2.75, glycine 50mM
  Tm: 57.6 °C
  heat capacity change of unfolding: 0.35 kcal/mol/K
  unfolding enthalpy (calorimetric): 51 kcal/mol
pH 2.85, glycine 50mM
  Tm: 59.5 °C
  heat capacity change of unfolding: 1.02 kcal/mol/K
  unfolding enthalpy (calorimetric): 52.3 kcal/mol
pH 2.93, glycine 50mM
  Tm: 63.9 °C
  heat capacity change of unfolding: 0.44 kcal/mol/K
  unfolding enthalpy (calorimetric): 60.1 kcal/mol
pH 3, glycine 50mM
  Tm: 63.3 °C
  heat capacity change of unfolding: 0.84 kcal/mol/K
  unfolding enthalpy (calorimetric): 57.4 kcal/mol
pH 3.25, glycine 50mM
  Tm: 69 °C
  heat capacity change of unfolding: 0.22 kcal/mol/K
  unfolding enthalpy (calorimetric): 56.1 kcal/mol
pH 7, Sodium phosphate 50mM
  Tm: 85.8 °C
  heat capacity change of unfolding: 0.18 kcal/mol/K
  unfolding enthalpy (calorimetric): 74.8 kcal/mol
pH 7.01, Sodium phosphate 50mM
  Tm: 85.3 °C
  heat capacity change of unfolding: 0.17 kcal/mol/K
  unfolding enthalpy (calorimetric): 71.1 kcal/mol
pH 7.05, Sodium phosphate 50mM
  Tm: 85.5 °C
  heat capacity change of unfolding: 0.36 kcal/mol/K
  unfolding enthalpy (calorimetric): 65.5 kcal/mol
pH 8, Sodium phosphate 50mM
  Tm: 86.5 °C
  heat capacity change of unfolding: 0.51 kcal/mol/K
  unfolding enthalpy (calorimetric): 72.3 kcal/mol
pH 9.2, bicine 50mM
  Tm: 86.3 °C
  heat capacity change of unfolding: 0.7 kcal/mol/K
  unfolding enthalpy (calorimetric): 72.1 kcal/mol
pH 10.05, glycine 50mM
  Tm: 86.5 °C
  heat capacity change of unfolding: 0.53 kcal/mol/K
  unfolding enthalpy (calorimetric): 72.5 kcal/mol
pH 10.5, glycine 50mM
  Tm: 87 °C
  heat capacity change of unfolding: 0.05 kcal/mol/K
  unfolding enthalpy (calorimetric): 73.6 kcal/mol
pH 10.55, glycine 50mM
  Tm: 86 °C
  heat capacity change of unfolding: 0.8 kcal/mol/K
  unfolding enthalpy (calorimetric): 68.5 kcal/mol
